Data from US20170368132A1 (published 2017).
Numbering of substitutions follows the chain as printed. Names and notes keep the numbering of the source. Non-standard residues stand in square brackets, D forms with d. Groups on a side chain read outwards from the residue. *: point of attachment. 5FAM = O=C1OC2(c3ccc(O)cc3Oc3cc(O)ccc32)c2ccc(C(=O)*)cc21

B1: Rad51 (S208E; A209D) (enzyme)
chain: MAMQMQLEANADTSVEEESFGPQPISRLEQCGINANDVKKLEEAGFHTVEAVAYAPKKELINIKGISEAKADKILAEAAKLVPMGFTTATEFHQRRSEIIQITTGSKELDKLLQGGIETGSITEMFGEFRTGKTQICHTLAVTCQLPIDRGGGEGKAMYIDTEGTFRPERLLAVAERYGLSGSDVLDNVAYARAFNTDHQTQLLYQAEDMMVESRYALLIVDSATALYRTDYSGRGELSARQMHLARFLRMLLRLADEFGVAVVITNQVVAQVDGAAMFAADPKKPIGGNIIAHASTTRLYLRKGRGETRICKIYDSPCLPEAEAMFAINADGVGDAKD
notes: Human RAD51 mutant tested by Y2H; also called human RAD51 S208E A209D
B2: Rad51 (F86E; A89E) (enzyme)
chain: B1 chain with F86E, A89E, E208S, D209A
notes: Human RAD51 mutant tested by Y2H; also called human RAD51 F86E A89E
B3: Rad51 (Q202R, Y205D, Q206A) (enzyme)
chain: B1 chain with Q202R, Y205D, Q206A, E208S, D209A
notes: Human RAD51 mutant tested by Y2H; also called human RAD51 Q202R Y205D Q206A
B4: Rad51 (S208L; A209E; M210A) (enzyme)
chain: B1 chain with E208L, D209E, M210A
notes: Human RAD51 mutant tested by Y2H; also called human RAD51 S208L A209E M210A
B5: Rad51 (A190L; A192L) (enzyme)
chain: B1 chain with A190L, A192L, E208S, D209A
notes: Human RAD51 mutant tested by Y2H; also called human RAD51 A190L A192L

Tests used:
Rad51 (S208E; A209D) = biological target: B1; assay: yeast two-hybrid, human RAD51 mutant
Protocol: (§1) The ability of peptides to bind human RAD51 with various mutations was then tested by Y2H assay. […] While mutations affecting BRCA2 binding had no effect on peptide binding, mutations that affected RAD51-AP1 binding did disrupt peptide binding. As these mutations were at residues 202, 205, and 206, they were consistent with the previous fusion data showing binding somewhere in the 190-218 region, and indicated the peptide SEQ ID NO.:5 contacts at least residues 202, 205, and 206 of RAD51.

[1] = biological target: B3; assay: yeast two-hybrid, human RAD51 mutant
Protocol: as §1

Rad51 (A190L; A192L) = biological target: B5; assay: yeast two-hybrid, human RAD51 mutant
Protocol: as §1

[2] = biological target: B4; assay: yeast two-hybrid, human RAD51 mutant
Protocol: as §1

Rad51 (F86E; A89E) = biological target: B2; assay: yeast two-hybrid, human RAD51 mutant
Protocol: as §1

H. sapiens Rad51 = biological target: T1, H. sapiens Rad51 (H. sapiens, UniProt Q06609 1-339); assay: yeast two-hybrid, human RAD51 mutant
T1 construct: Expressed in yeast as a two-hybrid fusion; also called human RAD51
T1 sequence: B1 chain with E208S, D209A
Protocol: as §1

[3] = biological target: T2, Rad51, fluorescently labelled (microscale thermophoresis) (UniProt Q06609 1-339, limits assumed, fluorescently labelled according to the manufacturer's protocol (site not stated)); assay: microscale thermophoresis, labelled Rad51 about 500 nM, PBS
T2 construct: Purified labelled protein at about 500 nM; The buffer contained 0.5 mM ATP and 2.5 uM ssDNA
T2 sequence (looked up): B1 chain with E208S, D209A
Protocol: (§2) Microscale thermophoresis was performed as previously described (see, for e.g. Jerabek-Willemsen, M., Wienken, C. J., Braun, D., Baaske, P. & Duhr, S. Molecular interaction studies using microscale thermophoresis. Assay Drug Dev. Technol. 9, 342-353 (2011)). The affinity of the Compound was measured using the Monolith NT.115 from Nanotemper Technologies. Rad51 was fluorescently labelled according to the manufacturer's protocol and the labelled protein used for each assay was about 500 nM. A solution of unlabelled peptide was diluted for appropriate serial concentration gradient. The samples were loaded into silica capillaries (Polymicro Technologies). Measurements were performed at room temperature in buffer containing PBS, 0.1% Tween 20, 0.5 mM ATP, 2.5 uM ssDNA, with 1 mM CaCl2 (when mentioned). Measurements were done using 12% LED power and 60% MST power. The assays were repeated three times for each affinity measurement. Data analyses were performed using Nanotemper Analysis software and OriginPro 8.0 software provided by the manufacturer.

[4] = biological target: T2, Rad51, fluorescently labelled …; assay: microscale thermophoresis, labelled Rad51 about 500 nM, PBS + 1 mM Ca2+
Protocol: as §2

[5] = biological target: T2, Rad51, fluorescently labelled …; assay: microscale thermophoresis, 1 mM Ca2+ against no Ca2+
Protocol: as §2

KEPTLLGFHTASGKKVKIAKESLDKVKNLFDEKEQ (Y2H fusion in yeast) [residues 1517-1551 of human BRCA2 used as Y2H bait]
binding result (Rad51 (S208E; A209D)): no binding
binding result [1]: binds
binding result (Rad51 (A190L; A192L)): no binding
binding result [2]: no binding
binding result (Rad51 (F86E; A89E)): binds

B1
binding result (H. sapiens Rad51): binds

B2
binding result (H. sapiens Rad51): no binding

B3
binding result (H. sapiens Rad51): binds

B4
binding result (H. sapiens Rad51): no binding

B5
binding result (H. sapiens Rad51): no binding

Ac-[dL][dM][dR][dS][dV][dR][dL][dR][dV]G[dL][dR][dK][dR][dR][dR][dR][dR][dR][dR]-NH2 [Compound 10, Ac-lmrsvrlrvGlrkrrrrrrr-NH2]
Kd [3]: 8.55 nM

Ac-K([C6-5FAM])RRRRRRRKRLGVRLRVSRML-NH2 (also called active peptide 5) [Compound 5, Ac-K(C6_5FAM)-RRRRRRRKRLGVRLRVSRML-NH2]
Kd [4]: 28.9 nM
fold increase of Kd (calcium raised from 0 to 1 mM) [5]: 3.4 fold
Kd [3]: 8.37 nM
